Results: the supplement of paper PMC7877785
± gives the uncertainty stated by the source.

Assay: self-splicing fitness, log relative to wild type (ln ratio); higher = more splicing; Tetrahymena group I intron in knt gene, E. coli kanamycin selection, DiMSum; sequences stand for … in CUCUCU…GGAGGGAAAAGUUAUCAGGCAUGCACCUGGUAGCUAGUCUUUAAACCAAUAGAUUGCAUCGGUUUAAAAGGCAAGACCGUCAAAUUGCGGGAAAGGGGUCAACAGCCGUUCAGUACCAAGUCUCAGGGGAAACUUUGAGAUGGCCUUGCAAAGGGUAUGGUAAUAAGCUGACGGACAUGGUCCUAACCACGCAGCCAAGUCCUAAGUCAACAGAUCUUCUGUUGAUAUGGAUGCAGUUCACAGACUAAAUGUCGGUCGGGGAAGAUGUAUUCUUCUCAUAAGAUAUAGUCGGACCUCUCCUUAAUGGGAGCUAGCGGAUGAAGUGAUGCAACACUGGAGCCGCUGGGAACUAAUUUGUAUGCGAAAGUAUAUUGAUUAGUUUUGGAGUACUCGUGGUCG
Procedure, shortened: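 Six replicate transformations of E. coli BL21(DE3) with a pET-22b(+) library were grown overnight at 37°C or 30°C. The library randomised all eight P1ex-region intron nucleotides, the intron lying in the knt kanamycin-resistance gene, and plates were LB agar with or without 25 μg/mL kanamycin plus 100 μg/mL carbenicillin, 50 μM IPTG and 0.2% rhamnose. Pooled colonies were amplicon-sequenced on an Illumina HiSeq 2500, and fitness is the DiMSum error-weighted combination of wild-type-normalised replicate fold changes, kanamycin versus none.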

Sequence	self-splicing fitness (ln) (30 °C)	self-splicing fitness (ln) (37 °C)
ACCUAGCAAUAUUACGGACA	-0.384 ± 0.075	-0.189 ± 0.08
ACUUAGCAAUAUUACGACUG	-1.53 ± 0.099	-0.694 ± 0.16
CAACAGCAAUAUUACGUCGC	-2.75 ± 0.17	-2.07 ± 0.18
UAAUAGCAAUAUUACGUAAC	–	-2.03 ± 0.38
GUGUAGCAAUAUUACGAUGA	-1.16 ± 0.087	-0.756 ± 0.094
AAAGAGCAAUAUUACGCACG	-2.69 ± 0.23	-2.22 ± 0.26
CCGUAGCAAUAUUACGCAUG	-0.123 ± 0.14	-1.09 ± 0.13
UAUUAGCAAUAUUACGUACA	-0.773 ± 0.22	-0.493 ± 0.23
UCCUAGCAAUAUUACGUUUC	-2.36 ± 0.4	-3.04 ± 0.43
GACGAGCAAUAUUACGUAGG	-3.47 ± 0.25	-2.12 ± 0.22
AAUUAGCAAUAUUACGCCAU	-2.49 ± 0.19	-1.04 ± 0.16
AGGCAGCAAUAUUACGGUGG	-3.05 ± 0.16	-2.88 ± 0.23
GCUUAGCAAUAUUACGUCAU	-2.19 ± 0.14	-0.965 ± 0.12
CGUAAGCAAUAUUACGGCUU	-3.69 ± 0.21	-2.02 ± 0.25
CACGAGCAAUAUUACGCUCA	-2.85 ± 0.45	-2.42 ± 0.27
UACCAGCAAUAUUACGUGAA	-1.06 ± 0.053	-0.463 ± 0.076
CUAAAGCAAUAUUACGCAGG	-0.529 ± 0.12	-1.09 ± 0.19
UAGUAGCAAUAUUACGACCU	-0.902 ± 0.11	0.242 ± 0.11
GUGAAGCAAUAUUACGUACG	-0.64 ± 0.16	0.312 ± 0.15
AAAUAGCAAUAUUACGGACC	-1.57 ± 0.25	-1.26 ± 0.31
GGCCAGCAAUAUUACGUCCA	-1.61 ± 0.17	-0.128 ± 0.15
GUGCAGCAAUAUUACGCUAU	-2.36 ± 0.15	-1.14 ± 0.12
GUUCAGCAAUAUUACGUGCG	-1.45 ± 0.068	-0.215 ± 0.093
CGCCAGCAAUAUUACGACAU	-3.741 ± 0.023	-2.75 ± 0.038

Sequence	self-splicing fitness (ln) (30 °C)	self-splicing fitness (ln) (37 °C)
UCGUAGCAAUAUUACGCGUU	-2.91 ± 0.26	-2.18 ± 0.26
GAAAAGCAAUAUUACGGAAA	-2.88 ± 0.27	-1.55 ± 0.16
GAUGAGCAAUAUUACGCGCA	-1.91 ± 0.21	-1.58 ± 0.19
GGACAGCAAUAUUACGUCAG	-0.431 ± 0.068	-0.434 ± 0.084
CAGGAGCAAUAUUACGGUAG	-0.725 ± 0.12	-0.902 ± 0.13
GUGGAGCAAUAUUACGGCCU	-1.74 ± 0.19	-0.55 ± 0.3
GGGCAGCAAUAUUACGGAGG	-4.42 ± 0.26	-3.03 ± 0.23
CUGGAGCAAUAUUACGAGCA	-2.32 ± 0.46	-2.63 ± 0.42
CACAAGCAAUAUUACGUGUU	-3.95 ± 0.12	-3.28 ± 0.13
CCUAAGCAAUAUUACGAACG	-1.68 ± 0.13	-0.478 ± 0.14
UUAUAGCAAUAUUACGAUGG	-1.24 ± 0.1	-0.128 ± 0.14
CUGAAGCAAUAUUACGUGAU	-2.7 ± 0.12	-1.07 ± 0.15
CCUGAGCAAUAUUACGGCAC	–	-2.23 ± 0.26
CGUCAGCAAUAUUACGCUAA	-2.28 ± 0.18	-0.0328 ± 0.15
AACCAGCAAUAUUACGCACU	0.473 ± 0.074	0.0602 ± 0.078
GAGGAGCAAUAUUACGACGU	-1.37 ± 0.13	-0.0936 ± 0.15
CUGAAGCAAUAUUACGGCUU	-4 ± 0.34	-2.84 ± 0.26
CUUGAGCAAUAUUACGGCUU	-3.95 ± 0.22	-2.41 ± 0.24
AGUGAGCAAUAUUACGUGAU	-2.87 ± 0.26	-2.74 ± 0.34
GAACAGCAAUAUUACGGUAC	-1.37 ± 0.064	-0.573 ± 0.072
AUUGAGCAAUAUUACGUCAG	-2.96 ± 0.2	-2.3 ± 0.45
CGUUAGCAAUAUUACGGCGU	-3.75 ± 0.31	-0.556 ± 0.19
CACGAGCAAUAUUACGAAUG	-2.66 ± 0.11	-2.17 ± 0.16
GGGAAGCAAUAUUACGAAUC	-0.774 ± 0.11	-0.499 ± 0.14
